The values that follow come from article PMC12752793, “Development of potent Affitin-based bispecific NK cell engagers for the therapy of MSLN-expressing cancers” (Molecular Therapy Oncology, 2025).

Some results are limits rather than exact numbers.

Test [1] has as its target recombinant 302–359 fragment of human mesothelin (hMSLN) (human) (UniProt Q13421). As to the kind of experiment: SPR; Biacore T200; hMSLN 302–359 amine-coupled at about 700 RU on CM5; analytes 12.5 to 200 nM in HBS-EP, single cycle kinetics, 30 μL/min; Langmuir model.
The target of test [2] is human mesothelin on the surface of Meso34-MSLN cells (human) (UniProt Q13421).
Chain of human mesothelin on the surface of Meso34-MSLN cells (human) (Q13421 other isoform, or with tags, fused parts or gaps): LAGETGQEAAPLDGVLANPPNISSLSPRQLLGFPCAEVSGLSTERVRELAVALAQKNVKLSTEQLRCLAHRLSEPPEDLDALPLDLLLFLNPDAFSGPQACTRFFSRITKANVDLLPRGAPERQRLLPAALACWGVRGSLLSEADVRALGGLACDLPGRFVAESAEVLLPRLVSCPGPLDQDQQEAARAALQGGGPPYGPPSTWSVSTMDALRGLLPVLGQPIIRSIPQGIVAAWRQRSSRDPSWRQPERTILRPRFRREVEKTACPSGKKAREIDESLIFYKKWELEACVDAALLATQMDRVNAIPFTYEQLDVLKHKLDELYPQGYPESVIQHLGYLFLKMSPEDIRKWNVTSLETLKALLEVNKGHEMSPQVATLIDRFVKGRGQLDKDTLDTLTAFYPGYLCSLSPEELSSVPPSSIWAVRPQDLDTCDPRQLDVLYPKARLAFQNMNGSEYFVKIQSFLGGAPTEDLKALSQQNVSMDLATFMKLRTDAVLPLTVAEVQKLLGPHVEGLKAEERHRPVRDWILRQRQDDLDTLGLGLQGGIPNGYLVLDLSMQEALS
Test [3] shares this target. As to the kind of experiment: flow cytometry on cells; Meso34-MSLN and NK92CD16h cells incubated with increasing concentrations of BiKEs, 30 min at 4°C; streptavidin-PE; one binding site regression.
In test [4] the target is T1, recombinant 302–359 fragment of human mesothelin (hMSLN) (human, UniProt Q13421 302-359, biotin on the AviTag).
T1 chain: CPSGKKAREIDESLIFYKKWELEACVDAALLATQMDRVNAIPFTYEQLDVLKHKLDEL
As to the kind of experiment: SPR.

The target of test [5] is T1, recombinant 302–359 fragment of human …. As to the kind of experiment: SPR.
The target of test [6] is T2, recombinant 302–359 fragment of human mesothelin (hMSLN) (Homo sapiens, UniProt Q13421, biotin on the AviTag).
T2 construct: Amine-coupled to a CM5 chip in SPR, captured on NeutrAvidin in ELISA; source: E. coli Origami B with pBirA, purified (Ni-NTA, Superdex 75); not shown: AviTag, C-terminal, kept
The experiment in a line: SPR; Biacore T200; hMSLN 302–359 amine-coupled at about 700 RU on CM5; analytes 12.5 to 200 nM in HBS-EP, single cycle kinetics, 30 μL/min; Langmuir model. As to conditions: both partners purified.

Test [7] addresses T1, recombinant 302–359 fragment of human …. The experiment in a line: SPR; bivalent model, kd2.
Test [8] concerns the target recombinant 302–359 fragment of human mesothelin (hMSLN) (human) (UniProt Q13421). As to the kind of experiment: SPR; Biacore T200; hMSLN 302–359 amine-coupled at about 700 RU on CM5; analytes 12.5 to 200 nM in HBS-EP, single cycle kinetics, 30 μL/min; bivalent model; apparent.
For test [9], the target named is T1, recombinant 302–359 fragment of human …. The experiment in a line: SPR; bivalent model, kd1.
For test [10] the target is unchanged. As to the kind of experiment: SPR.
In test [11] the target is human mesothelin on the surface of Meso34-MSLN cells (human) (UniProt Q13421). As to the kind of experiment: flow cytometry on cells; Meso34 and Meso34-MSLN cells stained with a concentration range of N13 monomer (streptavidin-PE), N13 dimer (anti-6X His Tag-PE) or MORAb-009 (anti-human IgG Fc), 30 min at 4°C; EC50 by one binding site regression.
For test [12], the target named is T1, recombinant 302–359 fragment of human …. The experiment in a line: SPR; bivalent model, kd2.
The target is the same in test [13]. As to the kind of experiment: SPR; bivalent model, kd1.

B1: C21(N13)1 bispecific NK cell engager (anti-CD16 VHH C21 fused to one N13 Affitin) (designed binder)
chain: MEVQLVESGGELVQAGGSLRLSCAASGLTFSSYNMGWFRRAPGKEREFVASITWSGRDTFYADSVKGRFTISRDNAKNTVYLQMSSLKPEDTAVYYCAANPWPVAAPRSGTYWGQGTQVTVSSPSGQAGAAASESLFVSNHAYGSATKVKFKVFGEEKEVDISKIKHVDRMNWRGLLYIRFSYDDNGKLGHGWVSEKDAPKELLEKLKKLNRGSHHHHHHGSGLNDIFEAQKIEWHE
modifications: biotin on the AviTag
As to B1, in test [1], the Kd is 67.1 nM. Besides, in test [2], the ED50 of NK92CD16h-mediated 51Cr cytotoxicity on Meso34-MSLN cells, effector/target ratio 10:1 was 5.62 nM; the ED50 of NK92CD16h-mediated 51Cr cytotoxicity on Meso34-MSLN cells, effector/target ratio 20:1 is 3.11 nM; the maximal NK92CD16h-mediated 51Cr cytotoxicity on Meso34-MSLN cells, effector/target ratio 10:1 was determined as 19.2%; the maximal NK92CD16h-mediated 51Cr cytotoxicity on Meso34-MSLN cells, effector/target ratio 20:1 worked out at 26.1%. This molecule also yielded an affinity for Meso34-hMSLN cells in test [3] greater than 100 nM. Besides, the koff in [4] was 0.0385 s⁻¹.

B2: VHH A1 (anti-hMSLN VHH) (VHH)
VHH: DVQLQESGGGLVHPGGSLRLSCAASGIDLSLYRMRWYRQAPGKERDLVALITDDGTSYYEDSVKGRFTITRDNPSNKVFLQMNSLKPEDTAVYYCNAETPLSPVNYWGQGTQVTVSS
For the molecule B2, the koff in [5] turned out to be 0.804 s⁻¹. The Kd in test [6] was 15.6 nM.

B3: C21(N13)2 bispecific NK cell engager (anti-CD16 VHH C21 fused to a homodimer of N13 Affitin) (designed binder)
chain: MEVQLVESGGELVQAGGSLRLSCAASGLTFSSYNMGWFRRAPGKEREFVASITWSGRDTFYADSVKGRFTISRDNAKNTVYLQMSSLKPEDTAVYYCAANPWPVAAPRSGTYWGQGTQVTVSSPSGQAGAAASESLFVSNHAYGSATKVKFKVFGEEKEVDISKIKHVDRMNWRGLLYIRFSYDDNGKLGHGWVSEKDAPKELLEKLKPSGQAGAAASESLFVSNHAYGSGATKVKFKVFGEEKEVDISKIKHVDRMNWRGLLYIRFSYDDNGKLGHGWVSEKDAPKELLEKLKLNRGSHHHHHHGSGLNDIFEAQKIEWHE
modifications: biotin on the AviTag
Turning to B3, the koff in test [7] amounted to 0.000762 s⁻¹. Besides, the Kd in test [8] was found to be 0.831 nM. In [2], the ED50 of NK92CD16h-mediated 51Cr cytotoxicity on Meso34-MSLN cells, effector/target ratio 10:1 stood at 0.325 nM; the ED50 of NK92CD16h-mediated 51Cr cytotoxicity on Meso34-MSLN cells, effector/target ratio 20:1 amounted to 0.277 nM; the maximal NK92CD16h-mediated 51Cr cytotoxicity on Meso34-MSLN cells, effector/target ratio 10:1 stood at 22.6%; the maximal NK92CD16h-mediated 51Cr cytotoxicity on Meso34-MSLN cells, effector/target ratio 20:1 stood at 38.9%. Also, in test [3], the 50% effective concentration (EC50) was 7.45 nM. Moreover, in [9], the koff came to 0.136 s⁻¹.

B4: N23 Affitin (monomer) (designed binder)
chain: MRGSHHHHHHGSATKVKFKLFGEEKEVDISKIKRVERRAIQAASYIAFAYDDNGKIGHGWVSEKDAPKELLEKLKLN
modifications: biotin on the AviTag
B4: the koff in [10] came out at 0.288 s⁻¹.

B5: N7 Affitin (monomer) (designed binder)
chain: MRGSHHHHHHGSATKVKFKYMGEEKEVDISKIKVVSRSVGPLGSFILFQYDDNGKMGRGFVSEKDAPKELLEKLKLN
modifications: biotin on the AviTag
B5: the koff in [10] is 0.214 s⁻¹.

B6: N13 Affitin homodimer (two N13 Affitins linked by a 20-amino-acid HMA linker) (designed binder)
chain: MRGSHHHHHHGSATKVKFKVFGEEKEVDISKIKHVDRMNWRGLLYIRFSYDDNGKLGHGWVSEKDAPKELLEKLKPSGQAGAAASESLFVSNHAYGSGATKVKFKVFGEEKEVDISKIKHVDRMNWRGLLYIRFSYDDNGKLGHGWVSEKDAPKELLEKLKLGSGLNDIFEAQKIEWHE
Turning to B6, in test [8], the Kd stood at 0.57 nM and the fold reduction of the dissociation rate constant (kd) against the N13 monomer came to 84 fold. For the same molecule, in test [11], the EC50 was determined as 2.22 nM and the fold increase in affinity for cellular hMSLN against the N13 monomer was 1000 fold. Further, in [12], the koff was 0.000767 s⁻¹. For the same molecule, the koff in test [13] amounted to 0.0573 s⁻¹.

B7: N13 Affitin (monomer) (designed binder)
chain: MRGSHHHHHHGSATKVKFKVFGEEKEVDISKIKHVDRMNWRGLLYIRFSYDDNGKLGHGWVSEKDAPKELLEKLKLN
modifications: biotin on the AviTag
As for B7, the koff in test [10] turned out to be 0.0647 s⁻¹.

B8: N18 Affitin (monomer) (designed binder)
chain: MRGSHHHHHHGSATKVKFKLFGEEKEVDISKIKKVERRTFHMDKTIVFMYDDNGKSGYGWVSEKDAPKELLEKLKLN
modifications: biotin on the AviTag
With B8, in test [10], the dissociation rate constant (koff) was determined as 0.073 s⁻¹.
